Patent US20240240209A1, “SYNTHESIS OF ENANTIOPURE CIS-A-IRONE FROM A RENEWABLE CARBON SOURCE” (Agency for Science, Technology and Research, priority 2021, published 2024)

B1: K94V (protein)
chain: MPQEARTPQQQVTADEVGDWYDKFGEVYHLTLGESVHCGLWFPPDAPVPQDMELVTMSSQAQDRFTDYLIETLDPKAGQHLLDIGCGTGRPALVAARQRGIAVTGVAVSKEQIAAANRLAAGHGLTERLTFEVADAMRLPYEDESFDCAWAIESLDHMDRAKALGEAWRVLKPGGDLLVAEEVVTEELTEPETALFETLFALNVPPRLGEFFDIVSGAGFHTLSLKDLSADLAMTMNVFALGVYSRRAEFTERFGAEFVDGLLAGLGSAQETVIRKTRFFMATLRKPAV
modifications: Modified from pMT1
B2: A269G (protein)
chain: MPQEARTPQQQVTADEVGDWYDKFGEVYHLTLGESVHCGLWFPPDAPVPQDMELVTMSSQAQDRFTDYLIETLDPKAGQHLLDIGCGTGRPALKAARQRGIAVTGVAVSKEQIAAANRLAAGHGLTERLTFEVADAMRLPYEDESFDCAWAIESLDHMDRAKALGEAWRVLKPGGDLLVAEEVVTEELTEPETALFETLFALNVPPRLGEFFDIVSGAGFHTLSLKDLSADLAMTMNVFALGVYSRRAEFTERFGAEFVDGLLAGLGSGQETVIRKTRFFMATLRKPAV
modifications: Modified from pMT1
B3: A95I (protein)
chain: MPQEARTPQQQVTADEVGDWYDKFGEVYHLTLGESVHCGLWFPPDAPVPQDMELVTMSSQAQDRFTDYLIETLDPKAGQHLLDIGCGTGRPALKIARQRGIAVTGVAVSKEQIAAANRLAAGHGLTERLTFEVADAMRLPYEDESFDCAWAIESLDHMDRAKALGEAWRVLKPGGDLLVAEEVVTEELTEPETALFETLFALNVPPRLGEFFDIVSGAGFHTLSLKDLSADLAMTMNVFALGVYSRRAEFTERFGAEFVDGLLAGLGSAQETVIRKTRFFMATLRKPAV
modifications: Modified from pMT1
B4: A269R (protein)
chain: MPQEARTPQQQVTADEVGDWYDKFGEVYHLTLGESVHCGLWFPPDAPVPQDMELVTMSSQAQDRFTDYLIETLDPKAGQHLLDIGCGTGRPALKAARQRGIAVTGVAVSKEQIAAANRLAAGHGLTERLTFEVADAMRLPYEDESFDCAWAIESLDHMDRAKALGEAWRVLKPGGDLLVAEEVVTEELTEPETALFETLFALNVPPRLGEFFDIVSGAGFHTLSLKDLSADLAMTMNVFALGVYSRRAEFTERFGAEFVDGLLAGLGSRQETVIRKTRFFMATLRKPAV
modifications: Modified from pMT1
B5: A269Y (protein)
chain: MPQEARTPQQQVTADEVGDWYDKFGEVYHLTLGESVHCGLWFPPDAPVPQDMELVTMSSQAQDRFTDYLIETLDPKAGQHLLDIGCGTGRPALKAARQRGIAVTGVAVSKEQIAAANRLAAGHGLTERLTFEVADAMRLPYEDESFDCAWAIESLDHMDRAKALGEAWRVLKPGGDLLVAEEVVTEELTEPETALFETLFALNVPPRLGEFFDIVSGAGFHTLSLKDLSADLAMTMNVFALGVYSRRAEFTERFGAEFVDGLLAGLGSYQETVIRKTRFFMATLRKPAV
modifications: Modified from pMT1
B6: A95V (protein)
chain: MPQEARTPQQQVTADEVGDWYDKFGEVYHLTLGESVHCGLWFPPDAPVPQDMELVTMSSQAQDRFTDYLIETLDPKAGQHLLDIGCGTGRPALKVARQRGIAVTGVAVSKEQIAAANRLAAGHGLTERLTFEVADAMRLPYEDESFDCAWAIESLDHMDRAKALGEAWRVLKPGGDLLVAEEVVTEELTEPETALFETLFALNVPPRLGEFFDIVSGAGFHTLSLKDLSADLAMTMNVFALGVYSRRAEFTERFGAEFVDGLLAGLGSAQETVIRKTRFFMATLRKPAV
modifications: Modified from pMT1
B7: Q11L (protein)
chain: MPQEARTPQQLVTADEVGDWYDKFGEVYHLTLGESVHCGLWFPPDAPVPQDMELVTMSSQAQDRFTDYLIETLDPKAGQHLLDIGCGTGRPALKAARQRGIAVTGVAVSKEQIAAANRLAAGHGLTERLTFEVADAMRLPYEDESFDCAWAIESLDHMDRAKALGEAWRVLKPGGDLLVAEEVVTEELTEPETALFETLFALNVPPRLGEFFDIVSGAGFHTLSLKDLSADLAMTMNVFALGVYSRRAEFTERFGAEFVDGLLAGLGSAQETVIRKTRFFMATLRKPAV
modifications: Modified from pMT1
B8: A95L (protein)
chain: MPQEARTPQQQVTADEVGDWYDKFGEVYHLTLGESVHCGLWFPPDAPVPQDMELVTMSSQAQDRFTDYLIETLDPKAGQHLLDIGCGTGRPALKLARQRGIAVTGVAVSKEQIAAANRLAAGHGLTERLTFEVADAMRLPYEDESFDCAWAIESLDHMDRAKALGEAWRVLKPGGDLLVAEEVVTEELTEPETALFETLFALNVPPRLGEFFDIVSGAGFHTLSLKDLSADLAMTMNVFALGVYSRRAEFTERFGAEFVDGLLAGLGSAQETVIRKTRFFMATLRKPAV
modifications: Modified from pMT1
B9: T185V (protein)
chain: MPQEARTPQQQVTADEVGDWYDKFGEVYHLTLGESVHCGLWFPPDAPVPQDMELVTMSSQAQDRFTDYLIETLDPKAGQHLLDIGCGTGRPALKAARQRGIAVTGVAVSKEQIAAANRLAAGHGLTERLTFEVADAMRLPYEDESFDCAWAIESLDHMDRAKALGEAWRVLKPGGDLLVAEEVVVEELTEPETALFETLFALNVPPRLGEFFDIVSGAGFHTLSLKDLSADLAMTMNVFALGVYSRRAEFTERFGAEFVDGLLAGLGSAQETVIRKTRFFMATLRKPAV
modifications: Modified from pMT1
B10: Q11P (protein)
chain: MPQEARTPQQPVTADEVGDWYDKFGEVYHLTLGESVHCGLWFPPDAPVPQDMELVTMSSQAQDRFTDYLIETLDPKAGQHLLDIGCGTGRPALKAARQRGIAVTGVAVSKEQIAAANRLAAGHGLTERLTFEVADAMRLPYEDESFDCAWAIESLDHMDRAKALGEAWRVLKPGGDLLVAEEVVTEELTEPETALFETLFALNVPPRLGEFFDIVSGAGFHTLSLKDLSADLAMTMNVFALGVYSRRAEFTERFGAEFVDGLLAGLGSAQETVIRKTRFFMATLRKPAV
modifications: Modified from pMT1
B11: A107S (protein)
chain: MPQEARTPQQQVTADEVGDWYDKFGEVYHLTLGESVHCGLWFPPDAPVPQDMELVTMSSQAQDRFTDYLIETLDPKAGQHLLDIGCGTGRPALKAARQRGIAVTGVSVSKEQIAAANRLAAGHGLTERLTFEVADAMRLPYEDESFDCAWAIESLDHMDRAKALGEAWRVLKPGGDLLVAEEVVTEELTEPETALFETLFALNVPPRLGEFFDIVSGAGFHTLSLKDLSADLAMTMNVFALGVYSRRAEFTERFGAEFVDGLLAGLGSAQETVIRKTRFFMATLRKPAV
modifications: Modified from pMT1
B12: T185L (protein)
chain: MPQEARTPQQQVTADEVGDWYDKFGEVYHLTLGESVHCGLWFPPDAPVPQDMELVTMSSQAQDRFTDYLIETLDPKAGQHLLDIGCGTGRPALKAARQRGIAVTGVAVSKEQIAAANRLAAGHGLTERLTFEVADAMRLPYEDESFDCAWAIESLDHMDRAKALGEAWRVLKPGGDLLVAEEVVLEELTEPETALFETLFALNVPPRLGEFFDIVSGAGFHTLSLKDLSADLAMTMNVFALGVYSRRAEFTERFGAEFVDGLLAGLGSAQETVIRKTRFFMATLRKPAV
modifications: Modified from pMT1
B13: Q11M (protein)
chain: MPQEARTPQQMVTADEVGDWYDKFGEVYHLTLGESVHCGLWFPPDAPVPQDMELVTMSSQAQDRFTDYLIETLDPKAGQHLLDIGCGTGRPALKAARQRGIAVTGVAVSKEQIAAANRLAAGHGLTERLTFEVADAMRLPYEDESFDCAWAIESLDHMDRAKALGEAWRVLKPGGDLLVAEEVVTEELTEPETALFETLFALNVPPRLGEFFDIVSGAGFHTLSLKDLSADLAMTMNVFALGVYSRRAEFTERFGAEFVDGLLAGLGSAQETVIRKTRFFMATLRKPAV
modifications: Modified from pMT1
B14: A107G (protein)
chain: MPQEARTPQQQVTADEVGDWYDKFGEVYHLTLGESVHCGLWFPPDAPVPQDMELVTMSSQAQDRFTDYLIETLDPKAGQHLLDIGCGTGRPALKAARQRGIAVTGVGVSKEQIAAANRLAAGHGLTERLTFEVADAMRLPYEDESFDCAWAIESLDHMDRAKALGEAWRVLKPGGDLLVAEEVVTEELTEPETALFETLFALNVPPRLGEFFDIVSGAGFHTLSLKDLSADLAMTMNVFALGVYSRRAEFTERFGAEFVDGLLAGLGSAQETVIRKTRFFMATLRKPAV
modifications: Modified from pMT1
B15: Q11V (protein)
chain: MPQEARTPQQVVTADEVGDWYDKFGEVYHLTLGESVHCGLWFPPDAPVPQDMELVTMSSQAQDRFTDYLIETLDPKAGQHLLDIGCGTGRPALKAARQRGIAVTGVAVSKEQIAAANRLAAGHGLTERLTFEVADAMRLPYEDESFDCAWAIESLDHMDRAKALGEAWRVLKPGGDLLVAEEVVTEELTEPETALFETLFALNVPPRLGEFFDIVSGAGFHTLSLKDLSADLAMTMNVFALGVYSRRAEFTERFGAEFVDGLLAGLGSAQETVIRKTRFFMATLRKPAV
modifications: Modified from pMT1
B16: H123N (protein)
chain: MPQEARTPQQQVTADEVGDWYDKFGEVYHLTLGESVHCGLWFPPDAPVPQDMELVTMSSQAQDRFTDYLIETLDPKAGQHLLDIGCGTGRPALKAARQRGIAVTGVAVSKEQIAAANRLAAGNGLTERLTFEVADAMRLPYEDESFDCAWAIESLDHMDRAKALGEAWRVLKPGGDLLVAEEVVTEELTEPETALFETLFALNVPPRLGEFFDIVSGAGFHTLSLKDLSADLAMTMNVFALGVYSRRAEFTERFGAEFVDGLLAGLGSAQETVIRKTRFFMATLRKPAV
modifications: Modified from pMT1

Assay: In-vivo cis-α-irone production screening of pMT7 and pMT12 mutants
Assay type: cell-based, Escherichia coli
Conditions: mutations made to pMT12; normalized to pMT12 (=1)
Procedure, shortened: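 E. coli BL21(DE3) ΔaroA ΔaroB ΔaroC ΔserC strains, with or without ΔmetJ, carried the plasmids and were grown in 1 ml auto-inducing defined medium (glucose/glycerol, 30 mM lactose) at 28 °C for 3 days. Products were extracted into hexane and measured by GC-MS. Production is a semi-quantitative fold change relative to pMT12.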

Molecule | Fold change in in-vivo cis-α-irone production
B1 | 0.84
B2 | 1.23
B3 | 0.98
B4 | 1.22
B5 | 1.21
B6 | 0.94
B7 | 0.92
B8 | 0.92
B9 | 1.14
B10 | 0.92
B11 | 1.17
B12 | 1.07
B13 | 0.90
B14 | 0.95
B15 | 0.88
B16 | 0.91
